From paper doi:10.1101/2020.02.06.938233 (bioRxiv, 2020)

Target: the molecule itself
Assay: FRET or BRET

B1: UL44(2-433), wild type, as CFP, YFP or RLuc fusion in HEK 293T cells (natural protein)
chain: DRKTRLSEPPTLALRLKPYKTAIQQLRSVIRALKENTTVTFLPTPSLILQTVRSHCVSKITFNSSCLYITDKSFQPKTINNSTPLLGNFMYLTSSKDLTKFYVQDISDLSAKISMCAPDFNMEFSSACVHGQDIVRESENSAVHVDLDFGVVADLLKWIGPHTRVKRNVKKAPCPTGTVQILVHAGPPAIKFILTNGSELEFTANNRVSFHGVKNMRINVQLKNFYQTLLNCAVTKLPCTLRIVTEHDTLLYVASRNGLFAVENFLTEEPFQRGDPFDKNYVGNSGKSRGGGGGGGSLSSLANAGGLHDDGPGLDNDLMNEPMGLGGLGGGGGGGGKKHDRGGGGGSGTRKMSSGGGGGDHDHGLSSKEKYEQHKITSYLTSKGGSGGGGGGGGGGLDRNSGNYFNDAKEESDSEDSVTFEFVPNTKKQKCG
BRET ratio: 0.36 ± 0.1
